The target of experiment [1] is E. coli Hfq V22A (E. coli) (UniProt P0A6X3). The experiment in a line: crystal structure; co-crystal of Hfq V22A with pA4 RNA; 22.5% PEGSB, 0.2 M LiSO4, 0.05 M zinc acetate, 0.1 M Bis-Tris pH 7.5; roughly 3.0 Å.
The target is the same in experiment [2]. The experiment in a line: crystal structure; co-crystal of Hfq V22A with A17 RNA; 15% PEGSH, 0.15 M ammonium acetate, 0.1 M trisodium citrate pH 5; 2.1 Å.

Drawing on paper PMC11770335, this text covers stoichiometry N for one substance.

What is called stoichiometry N is the number of molecules, sites or subunits per partner or assembly.

On to “E. coli Hfq V22A (from UniProt P0A6X3 1-102) (natural protein)”, for which the stoichiometry N in experiment [1] and in experiment [2] was 6 each time.
